Data set [1] has as its target T1, fusion peptide 6-Zif12 (synthetic 15-mer + Zif268, UniProt P08046 P08046:335-391). The experiment in a line: EMSA; similar results to peptides 1, 3, 5. The conditions noted are these: tags: N-terminal Met-Ala, leader peptide; chain copies: 2 stated; label: 32P end-label (Klenow). The method, then: (§1) Figure 4B: FIG. 4(A) Sequences of peptide extensions (SEQ ID NOS: 24-29) isolated from the initial selection. Numbers in parentheses give the frequency of occurrences among the 45 clones sequenced. The clones for peptide 2 included a Glu-21-to-Asp mutation in the zinc finger region that may have been partially responsible for the affinity of this peptide. (B) Gel mobility-shift assays using purified fusion peptides 1, 3, and 5. Protein (2.5 µM, 250 nM, 25 nM, 250 pM, and no protein) was incubated with DNA containing either an inverted repeat of Zif12 sites or a single Zif12 site and then electrophoresed through native polyacrylamide gels. The reduced mobility of the inverted repeat probe in the presence of protein indicates the formation of protein-DNA complexes. Similar results were obtained with fusion peptides 2 and 6. Binding of peptide 4 depend on disulfide bond formation.
(§2) To assess their DNA-binding activity, peptides obtained in these initial selections were expressed in *Escherichia coli* (as fusions with Zif12), purified, and tested in gel mobility-shift assays (FIG. 4B). These fusion peptides bound specifically to duplex DNA containing an inverted repeat of the Zif12 sites, showing little or no activity with DNA containing a single site. […]

Data set [2] concerns the target T2, fusion peptide 3-Zif12 (synthetic 15-mer + Zif268, UniProt P08046 P08046:335-391). Kind of data set: EMSA; up to 2.5 uM protein. The settings on record: tags: N-terminal Met-Ala, leader peptide; chain copies: 2 stated; label: 32P end-label (Klenow). The method, then:
as §1
(§3) To assess their DNA-binding activity, peptides obtained in these initial selections were expressed in *Escherichia coli* (as fusions with Zif12), purified, and tested in gel mobility-shift assays (FIG. 4B). These fusion peptides bound specifically to duplex DNA containing an inverted repeat of the Zif12 sites, showing little or no activity with DNA containing a single site. The complexes with the inverted-repeat site all migrated similarly in the gel, with a mobility for the complexes that was consistent with the formation of dimers.
In general terms: In EMSA bound probe runs differently from free probe, usually more slowly.

The target in data set [3] is T3, fusion peptide 1-Zif12 (synthetic 15-mer + Zif268, UniProt P08046 P08046:335-391). The experiment in a line: EMSA; up to 2.5 uM protein. The conditions noted are these: tags: N-terminal Met-Ala, leader peptide; chain copies: 2 stated; label: 32P end-label (Klenow). How it is done:
as §1, §3

In data set [4] the target is T4, fusion peptide 5-Zif12 (synthetic 15-mer + Zif268, UniProt P08046 P08046:335-391). The experiment in a line: EMSA; up to 2.5 uM protein. The settings on record: tags: N-terminal Met-Ala, leader peptide; chain copies: 2 stated; label: 32P end-label (Klenow). How it is done:
as §1, §3

Data set [5] addresses Zif12 (fingers 1-2 of Zif268) (UniProt P08046 P08046:333-390). The experiment in a line: EMSA; no shift under these conditions. The settings on record: tags: Gly-Ser dipeptide left at N terminus after GST removal; chain copies: 2 inferred (essentially noncooperative, one per half-site); label: 32P end-label (Klenow). The method, then:
as §1, §2

Data set [6] addresses T2, fusion peptide 3-Zif12. Kind of data set: EMSA; little or no activity with single site. The settings on record: tags: N-terminal Met-Ala, leader peptide; chain copies: 2 stated; label: 32P end-label (Klenow). The method, then:
as §1, §3

Data set [7] has as its target T3, fusion peptide 1-Zif12. The experiment in a line: EMSA; little or no activity with single site. The conditions noted are these: tags: N-terminal Met-Ala, leader peptide; chain copies: 2 stated; label: 32P end-label (Klenow). How it is done: as §1, §3
Data set [8] concerns the target T4, fusion peptide 5-Zif12. Kind of data set: EMSA; little or no activity with single site. The conditions noted are these: tags: N-terminal Met-Ala, leader peptide; chain copies: 2 stated; label: 32P end-label (Klenow). How it is done:
as §1, §3

In data set [9] the target is T1, fusion peptide 6-Zif12. The experiment in a line: EMSA; little or no activity with single site. The conditions noted are these: tags: N-terminal Met-Ala, leader peptide; chain copies: 2 stated; label: 32P end-label (Klenow). The method, then: as §1, §3

T1 sequence (P08046 335-391, one chain of several): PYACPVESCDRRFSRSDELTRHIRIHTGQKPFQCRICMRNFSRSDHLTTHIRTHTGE
T3 sequence (P08046 335-391, one chain of several): as above
T2 sequence (P08046 335-391, one chain of several): as above
T4 sequence (P08046 335-391, one chain of several): as above
Chain of Zif12 (fingers 1-2 of Zif268) (P08046 333-390, one chain of several): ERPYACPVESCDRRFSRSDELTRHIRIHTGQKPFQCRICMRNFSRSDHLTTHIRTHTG

B1: phage-selection target duplex, inverted repeat (dsDNA)
DNA 1: GGTTGCAGTGGGCGCGCCCACAGTACTTGAACGTAACG
DNA 2: CGTTACGTTCAAGTACTGTGGGCGCGCCCACTGCAACC
In the case of B1, the binding result with fusion peptide 6-Zif12 [1] is “binds”; with fusion peptide 3-Zif12 [2] it was “binds”; with fusion peptide 1-Zif12 [3] it was “binds”; with fusion peptide 5-Zif12 [4] it was “binds”; in data set [5], “no binding”.

B2: single Zif12 site mutant duplex (dsDNA)
DNA 1: GGTTGCAGTGGGCGTATGCTCAGTACTTGAACGTAACG
DNA 2: CGTTACGTTCAAGTACTGAGCATACGCCCACTGCAACC
modifications: [none]
As to B2, the binding result (with fusion peptide 3-Zif12 [6]; with fusion peptide 1-Zif12 [7]; with fusion peptide 5-Zif12 [8]; in the data set with fusion peptide 6-Zif12 [9]; in data set [5]) was “no binding” in each case.
